Test results reported in patent publication US20140105889A1 (published 2014).

Key:
Test in all cases: SPR (Biacore), FcγR over captured antibody; binding amount / that of IL6R-BF648/IL6R-L x100
human FcγRIIa type R = biological target: T1, human FcγRIIa type R (human, UniProt P12318 36-217)
T1 construct: also called FcgRIIaR; FcγRIIa(R)
T1 chain: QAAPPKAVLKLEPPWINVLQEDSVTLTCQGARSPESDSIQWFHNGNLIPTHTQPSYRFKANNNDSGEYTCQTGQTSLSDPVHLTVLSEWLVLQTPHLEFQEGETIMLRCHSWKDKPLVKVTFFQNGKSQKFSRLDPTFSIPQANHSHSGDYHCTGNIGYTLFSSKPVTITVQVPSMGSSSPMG
Experimental: (§1) According to the following method, relative binding activities were calculated for the results of analyzing interactions with the respective FcγRs.

human FcγRIIa type H = biological target: T2, human FcγRIIa type H (human, UniProt P12318 36-217)
T2 construct: also called FcgRIIaH; FcγRIIa(H)
T2 sequence: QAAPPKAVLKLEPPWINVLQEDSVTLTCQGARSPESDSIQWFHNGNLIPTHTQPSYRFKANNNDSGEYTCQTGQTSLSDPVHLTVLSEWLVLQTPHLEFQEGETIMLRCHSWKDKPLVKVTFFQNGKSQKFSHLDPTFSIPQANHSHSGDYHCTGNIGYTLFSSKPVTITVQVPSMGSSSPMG
Experimental: as §1

human FcγRIa = biological target: T3, human FcγRIa (human, UniProt P12314 16-292, limits assumed)
T3 construct: also called FcgRIa; CD64
Experimental: as §1

human FcγRIIIa type V = biological target: T4, human FcγRIIIa type V (human, UniProt P08637 17-208, limits assumed)
T4 construct: Allotype V158 was used; also called FcgRIIIaV; FcγRIIIa(V)
Experimental: as §1

human FcγRIIb = biological target: T5, human FcγRIIb (human, UniProt P31994 43-217)
T5 construct: also called FcgRIIb; FcγIIB
T5 sequence: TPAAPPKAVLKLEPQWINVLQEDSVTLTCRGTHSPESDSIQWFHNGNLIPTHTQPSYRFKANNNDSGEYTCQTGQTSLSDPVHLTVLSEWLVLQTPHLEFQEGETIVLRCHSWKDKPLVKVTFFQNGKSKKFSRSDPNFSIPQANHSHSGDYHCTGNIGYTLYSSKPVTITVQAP
Experimental: as §1

T3 sequence (P12314 16-292 limits assumed): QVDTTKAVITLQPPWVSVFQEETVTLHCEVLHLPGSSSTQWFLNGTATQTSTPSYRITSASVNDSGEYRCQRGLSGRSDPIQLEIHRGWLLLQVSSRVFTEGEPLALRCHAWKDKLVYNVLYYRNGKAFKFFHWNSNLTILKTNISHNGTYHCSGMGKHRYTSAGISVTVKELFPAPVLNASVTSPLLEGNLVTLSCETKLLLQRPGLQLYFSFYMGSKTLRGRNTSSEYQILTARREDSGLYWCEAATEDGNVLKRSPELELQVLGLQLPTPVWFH
T4 sequence (P08637 other isoform, or with tags, fused parts or gaps limits assumed): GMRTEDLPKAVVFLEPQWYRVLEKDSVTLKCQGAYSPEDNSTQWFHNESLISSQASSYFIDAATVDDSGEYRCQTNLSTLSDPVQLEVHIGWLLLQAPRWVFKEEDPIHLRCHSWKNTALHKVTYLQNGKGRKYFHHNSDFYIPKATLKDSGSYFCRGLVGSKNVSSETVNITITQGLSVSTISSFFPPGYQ

Binder | relative binding activity (human FcγRIIa type R) | relative binding activity (human FcγRIIa type H) | relative binding activity (human FcγRIa) | relative binding activity (human FcγRIIIa type V) | relative binding activity (human FcγRIIb)
IL6R-BP130/IL6R-L (antibody, human IgG1) heavy: QVQLQESGPGLVKPSETLSLTCAVSGHSISHDHAWSWVRQPPGEGLEWIGFISYSGITNYNPSLQGRVTISRDNSKNTLYLQMNSLRAEDTAVYYCARSLARTTAMDYWGEGTLVTVSSASTKGPSVFPLAPSSKSTSGGTAALGCLVKDYFPEPVTVSWNSGALTSGVHTFPAVLQSSGLYSLSSVVTVPSSSLGTQTYICNVNHKPSNTKVDKKVEPKSCDKTHTCPPCPAPDLLGGDSVFLFPPKPKDTLMISRTPEVTCVVVDVSHEDPEVKFNWYVDGVEVHNAKTKPREEQYNSTYRVVSVLTVLHQDWLNGKEYKCKMSNKALPKPIEKTISKAKGQPREPQVYTLPPSRDELTKNQVSLTCLVKGFYPSDIAVEWESNGQPENNYKTTPPVLDSDGSFFLYSKLTVDKSRWQQGNVFSCSVMHEALHNHYTQESLSLSP light: DIQMTQSPSSLSASVGDRVTITCRASQDISSYLNWYQQKPGKAPKLLIYYTSRLHSGVPSRFSGSGSGTDFTFTISSLQPEDIATYYCQQGNTLPYTFGQGTKVEIK | 272 % of IL6R-BF648/IL6R-L | 224 % of IL6R-BF648/IL6R-L | 104 % of IL6R-BF648/IL6R-L |  | 
IL6R-BP131/IL6R-L (antibody, human IgG1) heavy: QVQLQESGPGLVKPSETLSLTCAVSGHSISHDHAWSWVRQPPGEGLEWIGFISYSGITNYNPSLQGRVTISRDNSKNTLYLQMNSLRAEDTAVYYCARSLARTTAMDYWGEGTLVTVSSASTKGPSVFPLAPSSKSTSGGTAALGCLVKDYFPEPVTVSWNSGALTSGVHTFPAVLQSSGLYSLSSVVTVPSSSLGTQTYICNVNHKPSNTKVDKKVEPKSCDKTHTCPPCPAPDLLGDDSVFLFPPKPKDTLMISRTPEVTCVVVDVSHEDPEVKFNWYVDGVEVHNAKTKPREEQYNSTYRVVSVLTVLHQDWLNGKEYKCKVSNKALPKPIEKTISKAKGQPREPQVYTLPPSRDELTKNQVSLTCLVKGFYPSDIAVEWESNGQPENNYKTTPPVLDSDGSFFLYSKLTVDKSRWQQGNVFSCSVMHEALHNHYTQESLSLSP light: DIQMTQSPSSLSASVGDRVTITCRASQDISSYLNWYQQKPGKAPKLLIYYTSRLHSGVPSRFSGSGSGTDFTFTISSLQPEDIATYYCQQGNTLPYTFGQGTKVEIK | 364 % of IL6R-BF648/IL6R-L | 253 % of IL6R-BF648/IL6R-L | 33 % of IL6R-BF648/IL6R-L | 118 % of IL6R-BF648/IL6R-L | 
IL6R-BP146/IL6R-L (antibody, human IgG1) heavy: QVQLQESGPGLVKPSETLSLTCAVSGHSISHDHAWSWVRQPPGEGLEWIGFISYSGITNYNPSLQGRVTISRDNSKNTLYLQMNSLRAEDTAVYYCARSLARTTAMDYWGEGTLVTVSSASTKGPSVFPLAPSSKSTSGGTAALGCLVKDYFPEPVTVSWNSGALTSGVHTFPAVLQSSGLYSLSSVVTVPSSSLGTQTYICNVNHKPSNTKVDKKVEPKSCDKTHTCPPCPAPEYLGDDSVFLFPPKPKDTLMISRTPEVTCVVVDVSHEDPEVKFNWYVDGVEVHNAKTKPREEQYNSTYRVVSVLTVLHQDWLNGKEYKCKVSNAALPAPIEKTISKAKGQPREPQVYTLPPSRDELTKNQVSLTCLVKGFYPSDIAVEWESNGQPENNYKTTPPVLDSDGSFFLYSKLTVDKSRWQQGNVFSCSVMHEALHNHYTQESLSLSP light: DIQMTQSPSSLSASVGDRVTITCRASQDISSYLNWYQQKPGKAPKLLIYYTSRLHSGVPSRFSGSGSGTDFTFTISSLQPEDIATYYCQQGNTLPYTFGQGTKVEIK | 445 % of IL6R-BF648/IL6R-L | 203 % of IL6R-BF648/IL6R-L |  |  | 156 % of IL6R-BF648/IL6R-L
IL6R-BP151/IL6R-L (antibody, human IgG1) heavy: QVQLQESGPGLVKPSETLSLTCAVSGHSISHDHAWSWVRQPPGEGLEWIGFISYSGITNYNPSLQGRVTISRDNSKNTLYLQMNSLRAEDTAVYYCARSLARTTAMDYWGEGTLVTVSSASTKGPSVFPLAPSSKSTSGGTAALGCLVKDYFPEPVTVSWNSGALTSGVHTFPAVLQSSGLYSLSSVVTVPSSSLGTQTYICNVNHKPSNTKVDKKVEPKSCDKTHTCPPCPAPDYLGDDSVFLFPPKPKDTLMISRTPEVTCVVVDVSHEDPEVKFNWYVDGVEVHNAKTKPREEQYNSTYRVVSVLTVLHQDWLNGKEYKCKVSNAALPRPIEKTISKAKGQPREPQVYTLPPSRDELTKNQVSLTCLVKGFYPSDIAVEWESNGQPENNYKTTPPVLDSDGSFFLYSKLTVDKSRWQQGNVFSCSVMHEALHNHYTQESLSLSP light: DIQMTQSPSSLSASVGDRVTITCRASQDISSYLNWYQQKPGKAPKLLIYYTSRLHSGVPSRFSGSGSGTDFTFTISSLQPEDIATYYCQQGNTLPYTFGQGTKVEIK | 705 % of IL6R-BF648/IL6R-L | 621 % of IL6R-BF648/IL6R-L | 39 % of IL6R-BF648/IL6R-L | 221 % of IL6R-BF648/IL6R-L | 
IL6R-BP152/IL6R-L (antibody, human IgG1) heavy: QVQLQESGPGLVKPSETLSLTCAVSGHSISHDHAWSWVRQPPGEGLEWIGFISYSGITNYNPSLQGRVTISRDNSKNTLYLQMNSLRAEDTAVYYCARSLARTTAMDYWGEGTLVTVSSASTKGPSVFPLAPSSKSTSGGTAALGCLVKDYFPEPVTVSWNSGALTSGVHTFPAVLQSSGLYSLSSVVTVPSSSLGTQTYICNVNHKPSNTKVDKKVEPKSCDKTHTCPPCPAPDYLGDDSVFLFPPKPKDTLMISRTPEVTCVVVDVSHEDPEVKFNWYVDGVEVHNAKTKPREEQDNSTYRVVSVLTVLHQDWLNGKEYKCKVSNAALPRPIEKTISKAKGQPREPQVYTLPPSRDELTKNQVSLTCLVKGFYPSDIAVEWESNGQPENNYKTTPPVLDSDGSFFLYSKLTVDKSRWQQGNVFSCSVMHEALHNHYTQESLSLSP light: DIQMTQSPSSLSASVGDRVTITCRASQDISSYLNWYQQKPGKAPKLLIYYTSRLHSGVPSRFSGSGSGTDFTFTISSLQPEDIATYYCQQGNTLPYTFGQGTKVEIK | 638 % of IL6R-BF648/IL6R-L | 548 % of IL6R-BF648/IL6R-L | 34 % of IL6R-BF648/IL6R-L |  | 178 % of IL6R-BF648/IL6R-L
IL6R-BP176/IL6R-L (antibody, human IgG1) heavy: QVQLQESGPGLVKPSETLSLTCAVSGHSISHDHAWSWVRQPPGEGLEWIGFISYSGITNYNPSLQGRVTISRDNSKNTLYLQMNSLRAEDTAVYYCARSLARTTAMDYWGEGTLVTVSSASTKGPSVFPLAPSSKSTSGGTAALGCLVKDYFPEPVTVSWNSGALTSGVHTFPAVLQSSGLYSLSSVVTVPSSSLGTQTYICNVNHKPSNTKVDKKVEPKSCDKTHTCPPCPAPDLLGGDSVFLFPPKPKDTLMISRTPEVTCVVVDVSHEDPEVKFNWYVDGVEVHNAKTKPREEQYNSTYRVVSVLTVLHQDWLNGKEYKCKVSNDALPKPIEKTISKAKGQPREPQVYTLPPSRDELTKNQVSLTCLVKGFYPSDIAVEWESNGQPENNYKTTPPVLDSDGSFFLYSKLTVDKSRWQQGNVFSCSVMHEALHNHYTQESLSLSP light: DIQMTQSPSSLSASVGDRVTITCRASQDISSYLNWYQQKPGKAPKLLIYYTSRLHSGVPSRFSGSGSGTDFTFTISSLQPEDIATYYCQQGNTLPYTFGQGTKVEIK | 201 % of IL6R-BF648/IL6R-L | 128 % of IL6R-BF648/IL6R-L | 102 % of IL6R-BF648/IL6R-L |  | 147 % of IL6R-BF648/IL6R-L
IL6R-BP178/IL6R-L (antibody, human IgG1) heavy: QVQLQESGPGLVKPSETLSLTCAVSGHSISHDHAWSWVRQPPGEGLEWIGFISYSGITNYNPSLQGRVTISRDNSKNTLYLQMNSLRAEDTAVYYCARSLARTTAMDYWGEGTLVTVSSASTKGPSVFPLAPSSKSTSGGTAALGCLVKDYFPEPVTVSWNSGALTSGVHTFPAVLQSSGLYSLSSVVTVPSSSLGTQTYICNVNHKPSNTKVDKKVEPKSCDKTHTCPPCPAPDLLGDDSVFLFPPKPKDTLMISRTPEVTCVVVDVSHEDGEVKFNWYVDGVEVHNAKTKPREEQYNSTYRVVSVLTVLHQDWLNGKEYKCKVSNKALPKPIEKTISKAKGQPREPQVYTLPPSRDELTKNQVSLTCLVKGFYPSDIAVEWESNGQPENNYKTTPPVLDSDGSFFLYSKLTVDKSRWQQGNVFSCSVMHEALHNHYTQESLSLSP light: DIQMTQSPSSLSASVGDRVTITCRASQDISSYLNWYQQKPGKAPKLLIYYTSRLHSGVPSRFSGSGSGTDFTFTISSLQPEDIATYYCQQGNTLPYTFGQGTKVEIK | 653 % of IL6R-BF648/IL6R-L | 259 % of IL6R-BF648/IL6R-L | 51 % of IL6R-BF648/IL6R-L |  | 179 % of IL6R-BF648/IL6R-L
